Experimental data taken from paper PMC12255766 (2025).

B1: Venus::LAT-1 (C. elegans latrophilin homolog LAT-1 fused to Venus) [C. elegans] / Nluc::LAG-2 (C. elegans DSL protein/Notch ligand LAG-2 fused to Nanoluciferase) [C. elegans] (parent complex)
chain 1: SNKPTTDESGTISHTICDGEAAELSCPAGKVISIVLGNYGRFSVAVCLPDNDIVPSNINCQNHKTKSILEKKCNGDSMCYFTVDKKTFTEDPCPNTPKYLEVKYNCVVPATTTTTTTTTSTTTTDSSLIVDEEEEAQKDALNSDVIKPVKKKEDVFCSATNRRGVNWQNTKSGTTSSAPCPEGSSGKQLWACTEEGQWLTEFPNSAGCESNWISSRNSVLSGVISSEDVSGLPEFLRNLGSETRRPMVGGDLPKVLHLLEKTVNVIAEESWAYQHLPLSNKGAVEVMNYMLRNQEIWGSWDVTKRKEFASRFILAAEKAMVASAKGMMTSAESNVIVQPAITVEISHKIKMSSQPTDYILFPSAALWNGQNVDNVNIPRDAILKINKDETQVFFSSFDNLGAQMTPSDVTVAIAGTDQTEVRKRRVVSRIVGASLIENGKERRVENLTQPVRITFYHKESSVRHLSNPTCVWWNHHELKWKPSGCKLSYHNKTMTSCDCTHLTHFAVLMDVRGHDLNEIDQTLLTLLTYVGCIISIICLLLTFFAYLIFSRNGGDRVFIHENLCLSLAIAEITFLAGITRTEDSLQCGIIAVALMYMFLSALTWMLLEGYHIHRMLTEVFPSDPRRFTYLLVGYIPPAIITLVAYLYNSDGFGTPDHCWLSTQNNFIWFFAGPACFIFCANSLVLVKTLCTVYQHTSGGYLPCRHDVDSGRSIRNWVKGSLALASLLGVTWIFGLFWVEDSRSIVMAYVFTISNSLQGLFIFLFHVVFAEKMRKDVGHWMYRRGCGGSSNSSPNHKRHNVQRDLMSPGVNSSTGSDFLYNTNDKYLTNSDTTNRLVYNGIMNHPNQMSVYQQHPHHQIYEQQPGTYDYATIAYGDMMPGHRVAAPPAYQRLAVAEGRYGSQHQLYQGWHHRPPPEFSPPPPPLSTGPPNSRHYGTGSSGRRPPSSKMSDDSAYSDGSSSMLTTEVTPQGQTVLRIDLNKPSMYCQDL
chain 2: QARVEVHQEFISSKRVSVRFEIVTESHSPNRPVTFDLFPRGPKTNIILLDTFNPVFNFSIQLVQPFTGQPLGDRIYRKVQFSGTNQPWINDTFTTTSGISLSVATEVTCARNYFGNRCENFCDAHLAKAARKRCDAMGRLRCDIGWMGPHCGQAVDPRKCSCENDGICVSSMIHPSQPNQTSSNEQLICECTNGFTGTRCEIFGFNQFQLTAPRPDACSVKDACLNGAKCFPNGPKVFCSCAVGFIGEFCEISLTTTTPTTVEITVSTSGYSSAVYITVALFVIFSIIIGCFKYKFKPMRQQALARGQVPEPYKMPETKSMLIDPEASEAQKKVFTIEGSVQKIDEEVRYTSAPRKYESNNEYAVIQKSTPPPPSLSPPSIPACHYV

Variants of: B1
Assay: NanoBRET; HEK293 cells; Venus::LAT-1 acceptor, Nluc::LAG-2 donor; parent: 0.0042; read off a plot

Row | Variant | screen value
1 | chain 1 L36A, chain 1 F42A, chain 1 D50A, chain 1 D52A, chain 1 V54A | ~0.0053
2 | chain 1 Q354A, chain 1 P355A, chain 1 D357A, chain 1 Y358A, chain 1 L360A, chain 1 L366A, chain 1 W367A | ~0.0025
